Reference: paper PMC7057392 (ACS chemical neuroscience, 2020)

Key:
[1] = biological target: Cys-min α7 nAChR (human α7 nAChR containing only the C128-C142 and C190-C191 cysteines) (human) (UniProt P36544); experiment: SPR
[2] = biological target: wild-type human α7 nicotinic acetylcholine receptor (human, UniProt P36544 23-502); experiment: SPR

Kd [2] [nM] | Molecule | Kd [1] [nM]
 | PDZ domain of PICK1 (first 126 amino acids of PICK1) (from UniProt Q9NRD5 1-126) (domain or fragment) | 2600
2500 ± 400 | PDZ domain of PICK1 (first 126 amino acids of PICK1) (domain or fragment, UniProt Q9NRD5 1-126, looked up) MFADLDYDIEEDKLGIPTVPGKVTLQKDAQNLIGISIGGGAQYCPCLYIVQVFDNTPAALDGTVAAGDEITGVNGRSIKGKTKVEVAKMIQEVKGEVTIHYNKLQADPKQGMSLDIVLKKVKHRLV | 
